Experimental data taken from publication PMC4344526.
pKd: −log10 of the molar value.

How the values were obtained:
[1] = test system: Csy complex (Csy1-4 + crRNA, Type I-F) (Pseudomonas aeruginosa PA14); test: EMSA; conditions: EMSA: 20 mM HEPES pH 7.5, 100 mM KCl, 5% glycerol, 1 mM TCEP, 2 mM EDTA, 37 C, 15 min (competition 5 min), SPR: 20 mM HEPES pH 7.5, 100 mM KCl, 0.02%
[2] = test system: Csy complex (Csy1-4 + crRNA, Type I-F) (Pseudomonas aeruginosa PA14); test: SPR; conditions: ka 1.9e7 M-1 s-1, half-life 6.3 s, same as non-target, EMSA Kd >2 orders higher, EMSA: 20 mM HEPES pH 7.5, 100 mM KCl, 5% glycerol, 1 mM TCEP, 2 mM EDTA, 37 C, 15 min (competition 5 min), SPR: 20 mM HEPES pH 7.5, 100 mM KCl, 0.02%

For dsDNA target, 7-deazaguanine PAM, the binding signal (fold increase in Kd vs N1) ([1]; both PAM guanines replaced by 7-deazaguanine) was 120.
“dsDNA target, T-A/T-A PAM, duplexed (EMSA)” was tested, and the binding signal (fold weaker vs N1) [1] was 100.
For dsDNA target, inosine PAM, the binding signal (fold increase in Kd vs N1) ([1]; both PAM guanines replaced by inosine) was over 1000.
In the case of dsDNA target, protospacer + G-C/G-C PAM, the pKd [1] was 9.00.
“dsDNA target, protospacer + T-A/T-A PAM (SPR)” gave a pKd [2] of 8.22.
ssDNA target, protospacer + GG PAM showed a pKd [1] of 9.30.
